In patent US20070111944A1 (published 2007):

Experiments:
[1] = target: chimeric receptor consisting of the extracellular and transmembrane domain of VEGFR1 fused to the cytoplasmic domain of gp130 (UniProt P17948); assay: cell-based or functional assay
[2] = target: T1, VEGF-R1/Fc (human, UniProt P17948-2 27-758, limits assumed); assay: competition ELISA on captured VEGF-R1/Fc; competitor VEGF-A165 at 10 ng/ml, detected with biotinylated anti-VEGF-A165; VEGF-A165 at 10 ng/ml; VEGF-R1/Fc captured on plate
T1 construct: Bought from R&D Systems; also called VEGF receptor 1; Flt-1; not shown: human immunoglobulin Fc domain
Method: 1. […] 2. […] 6. […] 7. Biotinylated anti-VEGF-A₁₆₅ (10 ng/ml in Buffer 20, 100 μl) was added and incubated for 1 hr. […] 8. […] 9. […] 10. […] 11.

[3] = target: T2, VEGF-R2/Fc (human, UniProt P35968 20-764); assay: SPR (Biacore 2000), VEGF-B167 immobilised, receptor-Fc injected
T2 construct: Bought from R&D Systems; also called VEGF receptor 2; not shown: human immunoglobulin Fc domain
Method: For control purposes binding of the receptors to VEGF-A₁₆₅ was also monitored. Both VEGF-B₁₆₇ and VEGF-A₁₆₅ were individually immobilised to a sensorchip using NHS/EDC chemistry according to the manufacturer's instructions. Briefly, 35 μl of NHS and EDC was injected onto the sensorchip at a flow rate of 5 μl/min to activate the sensor surface and enable covalent coupling of either VEGF-A₁₆₅ or VEGF-B₁₆₇. […] Post coupling, diaminoethane (50 mM, pH 9.0) was used to block any unbound activated sites on the sensor surface. Concentrated dimeric VEGF-B₁₆₇ (200 μg/ml) was diluted (1:10) in 20 mM sodium acetate and immobilized onto a separate channel on the sensorchip. Post coupling, diaminoethane (50 mM, pH 9.0) was used to block any unbound activated sites on the sensor surface.
At the end of each run, the surface of the sensorchip was regenerated using 2 cycles of phosphoric acid (0.1 M, 30 μl) at a flow of 50 μl/min. […] Both were diluted into 0.1% w/v BSA in PBS as a stock solution (50 μg/ml, storage −20° C.).

Sequence of chimeric receptor consisting of the extracellular and transmembrane domain of VEGFR1 fused to the cytoplasmic domain of gp130 (P17948 other isoform, or with tags, fused parts or gaps mutant limits assumed): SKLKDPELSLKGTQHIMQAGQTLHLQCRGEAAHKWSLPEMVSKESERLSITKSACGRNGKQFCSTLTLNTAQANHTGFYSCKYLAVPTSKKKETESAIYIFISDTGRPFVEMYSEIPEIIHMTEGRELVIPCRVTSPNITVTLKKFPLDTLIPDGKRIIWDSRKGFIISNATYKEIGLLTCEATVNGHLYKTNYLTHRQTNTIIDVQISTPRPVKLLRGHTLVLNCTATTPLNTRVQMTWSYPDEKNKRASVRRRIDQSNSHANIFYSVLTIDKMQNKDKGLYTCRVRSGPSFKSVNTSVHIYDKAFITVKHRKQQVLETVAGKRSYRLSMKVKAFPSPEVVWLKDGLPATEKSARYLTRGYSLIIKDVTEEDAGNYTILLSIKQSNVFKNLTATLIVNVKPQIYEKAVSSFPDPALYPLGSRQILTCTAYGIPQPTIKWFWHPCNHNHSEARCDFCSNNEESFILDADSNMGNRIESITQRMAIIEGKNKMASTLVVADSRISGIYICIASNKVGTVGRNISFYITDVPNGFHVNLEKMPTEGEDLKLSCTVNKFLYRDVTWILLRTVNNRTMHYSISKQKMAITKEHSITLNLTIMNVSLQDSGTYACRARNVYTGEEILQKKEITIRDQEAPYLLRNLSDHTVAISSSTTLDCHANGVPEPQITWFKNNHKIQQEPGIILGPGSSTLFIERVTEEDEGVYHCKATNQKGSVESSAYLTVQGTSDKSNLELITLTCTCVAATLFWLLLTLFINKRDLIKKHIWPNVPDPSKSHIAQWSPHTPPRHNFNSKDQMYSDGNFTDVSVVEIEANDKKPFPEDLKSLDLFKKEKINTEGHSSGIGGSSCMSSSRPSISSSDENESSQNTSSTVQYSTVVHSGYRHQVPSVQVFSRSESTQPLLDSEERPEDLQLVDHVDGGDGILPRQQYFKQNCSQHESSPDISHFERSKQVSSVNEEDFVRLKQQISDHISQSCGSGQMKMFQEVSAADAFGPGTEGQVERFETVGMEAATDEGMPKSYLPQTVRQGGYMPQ
T2 sequence (P35968 20-764 limits assumed): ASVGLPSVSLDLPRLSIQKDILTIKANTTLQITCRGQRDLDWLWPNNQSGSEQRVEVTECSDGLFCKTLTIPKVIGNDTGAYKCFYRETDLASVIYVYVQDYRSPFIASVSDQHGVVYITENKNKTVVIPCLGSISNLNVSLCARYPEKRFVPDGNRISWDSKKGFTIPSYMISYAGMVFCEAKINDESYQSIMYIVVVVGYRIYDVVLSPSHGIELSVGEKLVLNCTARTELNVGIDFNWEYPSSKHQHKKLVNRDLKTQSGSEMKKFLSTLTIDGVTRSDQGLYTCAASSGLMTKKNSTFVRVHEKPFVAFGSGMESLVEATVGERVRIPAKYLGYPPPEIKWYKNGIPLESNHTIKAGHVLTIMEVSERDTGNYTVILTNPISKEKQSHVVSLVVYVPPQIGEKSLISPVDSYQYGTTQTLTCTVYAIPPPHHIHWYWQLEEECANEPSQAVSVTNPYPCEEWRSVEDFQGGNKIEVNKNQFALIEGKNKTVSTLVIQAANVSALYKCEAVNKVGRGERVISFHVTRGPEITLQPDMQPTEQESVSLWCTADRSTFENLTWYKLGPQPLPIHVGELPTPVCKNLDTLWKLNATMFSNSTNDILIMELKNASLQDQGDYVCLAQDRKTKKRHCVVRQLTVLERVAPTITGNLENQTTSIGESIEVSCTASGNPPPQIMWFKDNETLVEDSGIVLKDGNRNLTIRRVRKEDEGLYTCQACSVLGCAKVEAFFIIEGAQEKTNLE
T1 sequence (P17948 27-758 limits assumed, form in doubt): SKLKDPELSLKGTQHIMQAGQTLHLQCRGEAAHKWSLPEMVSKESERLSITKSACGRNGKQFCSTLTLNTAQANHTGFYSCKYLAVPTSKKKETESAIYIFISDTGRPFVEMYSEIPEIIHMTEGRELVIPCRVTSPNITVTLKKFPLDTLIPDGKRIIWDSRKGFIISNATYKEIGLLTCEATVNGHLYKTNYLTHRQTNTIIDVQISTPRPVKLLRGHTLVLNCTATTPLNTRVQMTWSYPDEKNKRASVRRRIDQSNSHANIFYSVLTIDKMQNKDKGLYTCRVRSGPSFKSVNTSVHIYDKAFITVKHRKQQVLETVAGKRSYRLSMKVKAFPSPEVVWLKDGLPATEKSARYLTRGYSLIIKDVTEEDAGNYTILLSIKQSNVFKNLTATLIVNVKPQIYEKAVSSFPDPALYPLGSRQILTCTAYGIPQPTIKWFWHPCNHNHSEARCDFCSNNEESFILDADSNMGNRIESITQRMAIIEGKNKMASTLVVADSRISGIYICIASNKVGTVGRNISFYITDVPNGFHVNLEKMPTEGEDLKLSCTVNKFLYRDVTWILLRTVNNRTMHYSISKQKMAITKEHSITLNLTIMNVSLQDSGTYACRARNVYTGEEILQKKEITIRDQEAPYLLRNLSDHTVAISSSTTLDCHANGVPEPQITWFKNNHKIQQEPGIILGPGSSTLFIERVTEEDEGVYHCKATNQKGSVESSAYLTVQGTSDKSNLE

Molecule: VEGF-A (from UniProt P15692 27-191) (ligand)
- luciferase reporter activity (ED50) [1]: 0.01 to 0.05 µg/mL

B1: refolded dimeric VEGF-B167 (ligand)
chain: APVSQPDAPGHQRKVVSWIDVYTRATCQPREVVVPLTVELMGTVAKQLVPSCVTVQRCGGCCPDDGLECVPTGQHQVRMQILMIRYPSSQLGEMSLEEHSQCECRPKKKDSAVKPDSPRPLCPRCTQHHQRPDPRTCRCRCRRRSFLRCQGRGLELNPDTCRCRKLRR
notes: also called purified dimeric VEGF-B167
- IC50 [2]: ~0.02 µg/mL
- binding result [3]: no binding (tested: 50 µg/ml stock diluted 1:10)
